From paper PMC3519778

Biological target: CD26 on human monocyte-derived immature dendritic cells (human (endogenous in monocyte-derived iDCs)) (UniProt P27487)
UniProt P27487, sequence (P27487 whole entry): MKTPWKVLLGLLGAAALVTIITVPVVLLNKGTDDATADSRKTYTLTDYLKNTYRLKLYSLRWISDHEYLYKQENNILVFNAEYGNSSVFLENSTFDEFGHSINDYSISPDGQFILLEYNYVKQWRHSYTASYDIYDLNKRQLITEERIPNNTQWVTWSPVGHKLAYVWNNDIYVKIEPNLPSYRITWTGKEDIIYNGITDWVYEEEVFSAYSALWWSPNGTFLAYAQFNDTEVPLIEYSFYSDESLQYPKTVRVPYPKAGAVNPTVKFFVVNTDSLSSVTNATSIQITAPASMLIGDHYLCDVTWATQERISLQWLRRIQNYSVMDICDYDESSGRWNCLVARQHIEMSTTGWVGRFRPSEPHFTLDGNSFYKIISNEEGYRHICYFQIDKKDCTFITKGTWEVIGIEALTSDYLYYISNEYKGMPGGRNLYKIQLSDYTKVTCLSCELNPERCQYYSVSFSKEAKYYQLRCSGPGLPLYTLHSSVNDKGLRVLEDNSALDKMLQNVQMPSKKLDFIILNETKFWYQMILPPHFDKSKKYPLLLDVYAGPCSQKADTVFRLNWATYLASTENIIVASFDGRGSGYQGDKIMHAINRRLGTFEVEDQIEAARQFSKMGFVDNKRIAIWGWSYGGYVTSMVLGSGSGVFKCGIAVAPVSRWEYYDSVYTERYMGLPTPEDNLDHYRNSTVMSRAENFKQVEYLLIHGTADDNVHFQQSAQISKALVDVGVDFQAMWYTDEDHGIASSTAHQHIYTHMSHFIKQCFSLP

ADA-mediated upregulation of CD80 on iDCs (flow cytometry, 48 h, 2 uM ADA) after pre-incubation of the cells with the anti-CD26 mAb TA5.9 (directed against the ADA-binding epitope on CD26): 0.64 in-fold
ADA-mediated upregulation of CD83 on iDCs (flow cytometry, 48 h, 2 uM ADA) after pre-incubation of the cells with the anti-CD26 mAb TA5.9 (directed against the ADA-binding epitope on CD26): 0.46 in-fold
B1: Adenosine deaminase (ADA, EC 3.5.4.4) from calf intestine (enzyme)
chain: MAQTPAFNKPKVELHVHLDGAIKPETILYYGRKRGIALPADTPEELQNIIGMDKPLSLPEFLAKFDYYMPAIAGCREAVKRIAYEFVEMKAKDGVVYVEVRYSPHLLANSKVEPIPWNQAEGDLTPDEVVSLVNQGLQEGERDFGVKVRSILCCMRHQPSWSSEVVELCKKYREQTVVAIDLAGDETIEGSSLFPGHVKAYAEAVKSGVHRTVHAGEVGSANVVKEAVDTLKTERLGHGYHTLEDATLYNRLRQENMHFEVCPWSSYLTGAWKPDTEHPVVRFKNDQVNYSLNTDDPLIFKSTLDTDYQMTKNEMGFTEEEFKRLNINAAKSSFLPEDEKKELLDLLYKAYGMPSPASAEQCL
